Five molecules from patent US20200339702A1 (ULTRAHUMAN THIRTEEN, published 2020) can be followed below.

In one experiment the target is T1, human insulin (human, UniProt P01308 25-54; P01308 90-110, limits assumed).
T1 construct: Off-target protein in the development risk (polyreactivity) ELISA
Description: development risk ELISA on insulin. For orientation: In an ELISA, binding on a coated surface is turned into a signal by an enzyme label.

Experiment [1] concerns the target T2, rhesus monkey ERBB3 human Fc tagged recombinant protein (rhesus monkey (Macaca mulatta), UniProt P21860 20-643 (human entry), limits assumed).
T2 construct: also called rhesus ERBB3-Fc; rhERBB3
T2 chain: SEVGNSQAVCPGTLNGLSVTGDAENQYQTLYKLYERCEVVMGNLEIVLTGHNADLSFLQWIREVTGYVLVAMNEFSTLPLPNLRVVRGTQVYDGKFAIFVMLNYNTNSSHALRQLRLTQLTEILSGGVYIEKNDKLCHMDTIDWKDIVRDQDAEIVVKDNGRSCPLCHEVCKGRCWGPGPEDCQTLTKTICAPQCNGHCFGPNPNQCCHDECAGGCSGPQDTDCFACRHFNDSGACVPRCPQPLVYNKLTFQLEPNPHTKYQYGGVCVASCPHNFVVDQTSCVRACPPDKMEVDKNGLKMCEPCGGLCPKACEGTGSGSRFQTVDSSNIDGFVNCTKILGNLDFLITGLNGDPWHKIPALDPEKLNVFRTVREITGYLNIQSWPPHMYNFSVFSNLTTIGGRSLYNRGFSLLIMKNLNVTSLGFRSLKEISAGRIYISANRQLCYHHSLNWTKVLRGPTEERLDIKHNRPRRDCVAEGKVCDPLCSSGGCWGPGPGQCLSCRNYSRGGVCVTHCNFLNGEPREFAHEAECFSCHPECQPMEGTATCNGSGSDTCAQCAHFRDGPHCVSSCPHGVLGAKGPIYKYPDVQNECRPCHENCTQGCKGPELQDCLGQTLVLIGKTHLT
Description: direct binding ELISA on coated rhesus ERBB3-Fc, IgG1 titrated. The procedure:
(§1) Binding and cross-reactivity of the lead panel to the recombinant proteins was initially assessed by binding ELISA. The human ERBB3 human Fc tagged recombinant protein and the rhesus monkey ERBB3 human Fc tagged recombinant protein were coated to the surface of MaxiSorp™ flat-bottom 96 well plate at 1 μg/ml. The purified IgG samples were titrated in two fold serial dilutions starting from 500 nM to 0.008 nM and allowed to bind to the coated antigens. The Fabs were detected using mouse anti-c-myc antibody followed by donkey anti-mouse IgG conjugated to horseradish peroxidase. The IgGs were detected using the mouse anti-human IgG conjugated to horseradish peroxidase. Binding signals were visualized with 3,3′,5,5′-Tetramethylbenzidine Substrate Solution (TMB) and the absorbance measured at 450 nm.

The target of experiment [2] is T3, rhesus ERBB3 on transiently transfected HEK-293 cells (rhesus monkey (Macaca mulatta), UniProt P21860 20-1342 (human entry)).
T3 construct: also called rhesus ERBB3+ HEK-293 cells
T3 chain: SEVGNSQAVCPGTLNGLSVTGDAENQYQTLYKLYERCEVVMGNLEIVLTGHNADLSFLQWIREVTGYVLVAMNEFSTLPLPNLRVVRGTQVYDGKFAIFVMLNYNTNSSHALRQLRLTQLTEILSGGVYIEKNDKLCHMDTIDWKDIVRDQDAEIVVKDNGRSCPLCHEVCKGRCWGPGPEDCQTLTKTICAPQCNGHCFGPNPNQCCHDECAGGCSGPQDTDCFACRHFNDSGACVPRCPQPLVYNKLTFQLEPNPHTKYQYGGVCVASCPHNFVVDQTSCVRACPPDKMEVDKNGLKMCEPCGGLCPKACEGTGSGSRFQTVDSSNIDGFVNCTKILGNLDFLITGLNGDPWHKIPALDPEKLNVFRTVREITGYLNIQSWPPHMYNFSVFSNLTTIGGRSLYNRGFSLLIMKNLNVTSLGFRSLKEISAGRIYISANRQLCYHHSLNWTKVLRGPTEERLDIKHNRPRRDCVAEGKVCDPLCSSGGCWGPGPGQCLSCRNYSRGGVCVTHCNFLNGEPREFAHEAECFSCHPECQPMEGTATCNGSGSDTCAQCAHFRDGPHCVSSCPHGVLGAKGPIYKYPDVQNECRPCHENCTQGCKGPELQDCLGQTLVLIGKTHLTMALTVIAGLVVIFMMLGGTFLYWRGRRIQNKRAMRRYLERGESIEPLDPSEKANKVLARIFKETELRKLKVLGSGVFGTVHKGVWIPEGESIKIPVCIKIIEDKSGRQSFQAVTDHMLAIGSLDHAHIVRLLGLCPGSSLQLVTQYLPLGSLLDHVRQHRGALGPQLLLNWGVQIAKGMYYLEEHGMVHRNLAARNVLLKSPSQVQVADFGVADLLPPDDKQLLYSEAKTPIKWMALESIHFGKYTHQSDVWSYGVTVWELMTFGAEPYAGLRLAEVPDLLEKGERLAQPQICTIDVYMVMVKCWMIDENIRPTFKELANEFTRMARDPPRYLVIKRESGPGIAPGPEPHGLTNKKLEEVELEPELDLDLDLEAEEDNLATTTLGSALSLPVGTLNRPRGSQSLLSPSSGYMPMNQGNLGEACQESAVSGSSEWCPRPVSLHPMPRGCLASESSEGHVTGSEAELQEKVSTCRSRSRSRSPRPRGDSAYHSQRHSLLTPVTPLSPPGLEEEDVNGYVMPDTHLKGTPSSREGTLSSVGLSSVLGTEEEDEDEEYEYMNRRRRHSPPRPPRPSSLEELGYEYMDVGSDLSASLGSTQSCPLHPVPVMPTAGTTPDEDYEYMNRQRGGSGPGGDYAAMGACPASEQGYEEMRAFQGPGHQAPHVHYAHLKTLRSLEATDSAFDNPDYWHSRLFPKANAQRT
Briefly: flow cytometry, rhesus ERBB3-transfected HEK-293 cells, IgG1 titrated. The protocol:
(§2) Purified IgGs were tested in FACs for binding to human and rhesus monkey ERBB3 expressed on transiently transfected HEK-293 cells and HEK-293 wild-type cells. The IgG samples were titrated in three-fold serial dilutions starting at 500 nM to 0.008 nM. Binding of IgGs was detected with a mouse anti-human IgG conjugated to FITC. Results were analyzed by examining the Mean Fluorescence Intensity (MFI) of 10000 cells per sample in the BL-1 channel detector of a flow cytometer (Attune™ NxT Acoustic Focusing Cytometer, Invitrogen/ThermoFisher Scientific).

In experiment [3] the target is T4, human ERBB3 His tagged, monomeric (human, UniProt P21860 20-643, biotinylated in the Alphascreen assays (sites not given)).
T4 construct: Used unbiotinylated as Biacore analyte and biotinylated in Alphascreen; treated as one molecule; also called human ERBB3-His (Acrobiosystems); biotinylated monomeric human ERBB3
Briefly: Alphascreen competition in solution, competitor h24C05 IgG1, biotinylated human ERBB3-His. A general note: Alpha assays give light when donor and acceptor beads are brought close together.

In experiment [4] the target is T5, human ERBB3 on transiently transfected HEK-293 cells (human, UniProt P21860 20-1342).
T5 construct: also called human ERBB3+ HEK-293 cells
Briefly: flow cytometry, human ERBB3-transfected HEK-293. The protocol: as §2
(§3) Antibodies to ERBB3 were analysed for concentration-dependent binding at the cell surface via flow cytometry. HEK-293 cells were transiently transfected with either human or rhesus ERBB3 full-length cDNAs. Anti-ERBB3 IgGs and an isotype control were then all tested in IgG1null format, over a concentration range of 500-0.008 nM for binding to human (FIG. 5A) and rhesus (FIG. 5B) transfected cells.

Experiment [5] concerns the target T3, rhesus ERBB3 on transiently transfected …. Description: flow cytometry, rhesus ERBB3-transfected HEK-293. The procedure:
as §2, §3

In experiment [6] the target is T4, human ERBB3 His tagged, monomeric. Briefly: SPR (Biacore), captured IgG, monomeric ERBB3-His analyte. The protocol:
(§4) Affinity (KD) of purified IgGs was determined via SPR with antigen in-solution on a Biacore® 3000 (GE). A mouse anti-human antibody (CH1 specific) was immobilized on a CM5 Sensor Chip to a level of 2000 RU in acetate buffer at pH 4.5 using amine coupling following the Wizard instructions for two channels. One channel was used for background signal correction. The standard running buffer HBS-EP pH 7.4 was used. Regeneration was performed with a single injection of 10 μl of 10 mM Glycine at pH 1.5 at […]. IgG samples were injected for 2 minutes at 50 nM at 30 μl/min followed by an off-rate of 60 seconds. The monomeric antigen (human ERBB3 His tagged or rhesus monkey ERBB3 His tag) was injected in two fold serial dilutions from 3 nM down to 0.2 nM, for 2 minutes at 30 μl/min followed by an off-rate of 300 seconds. The obtained sensorgrams were analysed using the Biacore® 3000 evaluation (BlAevaluation) software. The KD was calculated by simultaneous fitting of the association and dissociation phases to a 1:1 Langmuir binding model.
(§5) Biacore® analyses of binding affinity were performed for all IgGs to solution-phase, monomeric human and rhesus ERBB3 proteins.
(SPR reads the build-up and loss of mass on a sensor chip optically.)

In experiment [7] the target is T6, rhesus monkey ERBB3 His tag, monomeric (rhesus monkey (Macaca mulatta), UniProt P21860 20-643 (human entry), limits assumed).
T6 chain: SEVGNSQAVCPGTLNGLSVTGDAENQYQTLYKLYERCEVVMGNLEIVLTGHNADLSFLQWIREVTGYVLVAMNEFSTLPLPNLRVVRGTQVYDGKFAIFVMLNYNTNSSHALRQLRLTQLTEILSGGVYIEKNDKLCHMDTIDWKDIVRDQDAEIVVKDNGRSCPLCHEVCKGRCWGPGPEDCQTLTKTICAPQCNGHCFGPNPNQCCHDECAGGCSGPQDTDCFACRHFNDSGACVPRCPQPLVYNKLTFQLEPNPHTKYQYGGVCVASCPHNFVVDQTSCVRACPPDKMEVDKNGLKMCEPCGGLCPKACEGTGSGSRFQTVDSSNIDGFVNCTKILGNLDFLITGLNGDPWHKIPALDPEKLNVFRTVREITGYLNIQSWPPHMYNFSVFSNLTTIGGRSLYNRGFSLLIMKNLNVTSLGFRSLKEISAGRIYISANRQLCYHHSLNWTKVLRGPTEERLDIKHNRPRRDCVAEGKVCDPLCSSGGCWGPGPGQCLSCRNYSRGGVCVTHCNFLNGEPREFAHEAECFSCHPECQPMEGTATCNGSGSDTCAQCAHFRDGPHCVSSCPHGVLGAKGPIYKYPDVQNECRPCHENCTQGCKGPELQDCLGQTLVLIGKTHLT
The experiment is described as above. The procedure: as §4, §5

In experiment [8] the target is T7, human ERBB3 human Fc tagged recombinant protein (human, UniProt P21860 20-643).
T7 construct: also called human ERBB3-Fc; huERBB3
Briefly: direct binding ELISA on coated human ERBB3-Fc, IgG1 titrated. The procedure: as §1

Experiment [9] concerns the target T5, human ERBB3 on transiently transfected …. Description: flow cytometry, human ERBB3-transfected HEK-293 cells, IgG1 titrated. The protocol:
as §2

T1 sequence (P01308 25-54 limits assumed, chain 1 of 2): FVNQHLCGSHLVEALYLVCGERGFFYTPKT
T1 sequence (P01308 90-110 limits assumed, chain 2 of 2): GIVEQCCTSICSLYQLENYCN

B1: 15G11-DI1 IgG1 (antibody, V domains shown)
VH: QVQLVESGGGLVKPGGSLRLSCAASGFTFSDYGMSWVRQAPGKGLEWVSTISDSGSYTYYPDSVKGRFTISRDNAKNSLYLQMNSLRAEDTAVYYCARELGDYDGFDYWGQGTLVTVSS
VL: DIQMTQSPSSLSASVGDRVTITCRASQEISSYLSWYQQKPGKAPKLLIYAASSLDTGVPSRFSGSGSGTDFTLTISSLQPEDFATYYCLQYDSTPYTFGGGTKVEIK
notes: Human IgG1 format, human Ckappa
Regarding B1, the binding score with human insulin is < 10. The binding result in experiment [1] and in [2] was “binds” throughout. Further, the “IC50 (read off the curve)” value in [3] was ~0.5 nM.

B2: MH2 IgG1null (antibody, V domains shown)
VH: QVQLVESGGGLVKPGGSLRLSCAASGFTFSDYGMSWIRQAPGKGLEWVSTISDSGSYIYYADSVKGRFTISRDNAKNSLYLQMNSLRAEDTAVYYCAREWGDYDGFDFWGQGTLVTVSS
VL: DIQMTQSPSSLSASVGDRVTITCRASQSISSYLSWYQQKPGKAPKLLIYAASSLQSGVPSRFSGSGSGTDFTLTISSLQPEDFATYYCLQYDSTPLTFGGGTKVEIK
notes: Designer (Maximally Humanized) clone; Human IgG1null and human Ckappa
In the case of B2, in [4], the “maximum MFI, fold over isotype control background” value was > 20 fold. In addition, the “maximum MFI, fold over isotype control background” value in experiment [5] was > 20 fold. Also, in [6], the dissociation constant (Kd) (as a rule, the free concentration of one partner at which half of the binding sites on the other are occupied at equilibrium, for simple one-to-one binding) was determined as 0.27 nM; the koff (usually a measure of how fast the partners let go of each other) was determined as 0.0029 s⁻¹; the on-rate constant (kon) (usually the rate constant with which the complex forms) amounted to 1.1e+07 M⁻¹ s⁻¹. Also, in experiment [7], binding was characterised by a dissociation constant (Kd) of 0.23 nM, the koff was determined as 0.0048 s⁻¹ and the on-rate (kon) was 2e+07 M⁻¹ s⁻¹.

B3: 15G11-DI5 IgG1 (antibody, V domains shown)
VH: QVQLVESGGGLVKPGGSLRLSCAASGFTFSDYSMSWIRQAPGKGLEWVSTISDSGTYTYYPDSVKGRFTISRDNAKNSLYLQMNSLRAEDTAVYYCAREWGDYDGFDFWGQGTLVTVSS
VL: DIQMTQSPSSLSASVGDRVTITCRASQEISSYLSWYQQKPGKAPKLLIYAASSLDTGVPSRFSGSGSGTDFTLTISSLQPEDFATYYCLQYDSTPYTFGGGTKVEIK
notes: as for B1
On to B3, for which the binding score with human insulin was < 10. Also, the concentration giving a half-maximal response (EC50 (read off the curve)) in [8] and in experiment [1] was ~0.2 nM each time. The binding result in experiment [2] was “binds”.

B4: 15G11-DI11 IgG1 (antibody, V domains shown)
VH: QVQLVESGGGLVKPGGSLRLSCAASGFTFSDYGMSWVRQAPGKGLEWVSTISDSGSYTYYPDSVKGRFTISRDNAKNSLYLQMNSLRAEDTAVYYCARELGDYDGFDYWGQGTLVTVSS
VL: DIQMTQSPSSLSASVGDRVTITCRASQEASSYLSWYQQKPGKAPKLLAYAASSLDSGVPSRFSGSGSGTDFTLTISSLQPEDFATYYCLQYDSSPYTFGGGTKVEIK
notes: as for B1
As for B4, in the experiment with human insulin, the binding score was < 10.

B5: 15G11-DI6 IgG1 (antibody, V domains shown)
VH: QVQLVESGGGLVKPGGSLRLSCAASGFTFSDYSMSWIRQAPGKGLEWVSTISDSGTYTYYPDSVKGRFTISRDNAKNSLYLQMNSLRAEDTAVYYCAREWGDYDGFDFWGQGTLVTVSS
VL: DIQMTQSPSSLSASVGDRVTITCRASQEISTYLSWYQQKPGKAPKLLIYAASSLDTGVPSRFSGSGSGTDFTLTISSLQPEDFATYYCLQYDSTPYTFGGGTKVEIK
notes: as for B1
Consider B5, for which, in the experiment with human insulin, the binding score was < 10. In experiment [1], the binding result is recorded as “binds”. Moreover, the concentration giving a half-maximal response (EC50 (read off the curve)) (in general, the concentration needed to bring the measured effect to its halfway point) in experiment [9] was ~1 nM; in experiment [2] it was ~0.3 nM.
